Laboratory results taken from publication PMC3463739 (Protein expression and purification, 2012).
Like-named read-outs stand apart in the source and are kept apart here.

B1: [PPE172_(15)], recombinant polyprotein of 15 tandem repeats of the human titin exon 172 PEVK module (other)
chain: PEPPKEVVPEKKAPVAPPKKPEVPPVKVPEPPKEVVPEKKAPVAPPKKPEVPPVKVPEPPKEVVPEKKAPVAPPKKPEVPPVKVPEPPKEVVPEKKAPVAPPKKPEVPPVKVPEPPKEVVPEKKAPVAPPKKPEVPPVKVPEPPKEVVPEKKAPVAPPKKPEVPPVKVPEPPKEVVPEKKAPVAPPKKPEVPPVKVPEPPKEVVPEKKAPVAPPKKPEVPPVKVPEPPKEVVPEKKAPVAPPKKPEVPPVKVPEPPKEVVPEKKAPVAPPKKPEVPPVKVPEPPKEVVPEKKAPVAPPKKPEVPPVKVPEPPKEVVPEKKAPVAPPKKPEVPPVKVPEPPKEVVPEKKAPVAPPKKPEVPPVKVPEPPKEVVPEKKAPVAPPKKPEVPPVKVPEPPKEVVPEKKAPVAPPKKPEVPPVKV
B2: nebulin SH3 (domain or fragment, human, UniProt P20929 8466-8525, looked up)
chain: TAGKIFRAMYDYMAADADEVSFKDGDAIINVQAIDEGWMYGTVQRTGRTGMLPANYVEAI

Legend:
[1] = target: B2; experiment: ELISA
[2] = target: B2; experiment: ELISA; remark: listed apart in the source
[3] = target: B2; experiment: SPR
[4] = target: B1; experiment: ELISA
[5] = target: B1; experiment: ELISA

| Kd [1] [µM] | Kd [2] [µM] | Kd [3] [µM] | KD in the presence of 50 μg/ml RT11 [4] [µM] | KD in the presence of 50 μg/ml RT11 [5] [µM] | Binder |
| --- | --- | --- | --- | --- | --- |
| 23 | 7 | 340 |  |  | B1 |
|  |  |  | 471 | 9.69 | B2 |
